Laboratory results from the Human Domainome abundance scans (Beltran et al. 2025).
± gives the uncertainty stated by the source.

B1: E3 ubiquitin-protein ligase Midline-1, residues 172 to 214; numbered along this chain, O15344 (parent)
chain: GLMCLEHEDEKVNMYCVTDDQLICALCKLVGRHRDHQVAALSE

Variants of: B1
Experiment: abundance fitness (aPCA) (normalised: wild type 0, dead -1); higher = more abundant; growth selection in yeast, the domain comes from the species named
Conditions: Homo sapiens

Variant | abundance fitness
GLMCLEHHDEKVNMYCVTDDQLICALCKLVGRHRDHQVAALSE | 0.056 ± 0.13
GLMCLEHFDEKVNMYCVTDDQLICALCKLVGRHRDHQVAALSE | -0.144 ± 0.17
GLMCLEHWDEKVNMYCVTDDQLICALCKLVGRHRDHQVAALSE | -0.348 ± 0.076
GLMCLEHTDEKVNMYCVTDDQLICALCKLVGRHRDHQVAALSE | 0.398 ± 0.12
GLMCLEHRDEKVNMYCVTDDQLICALCKLVGRHRDHQVAALSE | 0.116 ± 0.045
GLMCLEHSDEKVNMYCVTDDQLICALCKLVGRHRDHQVAALSE | 0.375 ± 0.058
GLMCLEHKDEKVNMYCVTDDQLICALCKLVGRHRDHQVAALSE | 0.221 ± 0.074
GLMCLEHYDEKVNMYCVTDDQLICALCKLVGRHRDHQVAALSE | -0.243 ± 0.1
GLMCTEHEDEKVNMYCVTDDQLICALCKLVGRHRDHQVAALSE | -0.039 ± 0.12
GLMCVEHEDEKVNMYCVTDDQLICALCKLVGRHRDHQVAALSE | -0.165 ± 0.064
GLMCEEHEDEKVNMYCVTDDQLICALCKLVGRHRDHQVAALSE | 0.074 ± 0.066
GLMCQEHEDEKVNMYCVTDDQLICALCKLVGRHRDHQVAALSE | -0.155 ± 0.11
GLMCIEHEDEKVNMYCVTDDQLICALCKLVGRHRDHQVAALSE | -0.435 ± 0.41
GLMCSEHEDEKVNMYCVTDDQLICALCKLVGRHRDHQVAALSE | -0.012 ± 0.073
GLMCPEHEDEKVNMYCVTDDQLICALCKLVGRHRDHQVAALSE | 0.058 ± 0.069
GLMCREHEDEKVNMYCVTDDQLICALCKLVGRHRDHQVAALSE | -0.062 ± 0.054
GLMCNEHEDEKVNMYCVTDDQLICALCKLVGRHRDHQVAALSE | -0.124 ± 0.19
GLMCFEHEDEKVNMYCVTDDQLICALCKLVGRHRDHQVAALSE | -0.13 ± 0.3
GLMCHEHEDEKVNMYCVTDDQLICALCKLVGRHRDHQVAALSE | -0.037 ± 0.11
GLMCGEHEDEKVNMYCVTDDQLICALCKLVGRHRDHQVAALSE | -0.092 ± 0.062

Variant | abundance fitness
GLMCKEHEDEKVNMYCVTDDQLICALCKLVGRHRDHQVAALSE | 0.142 ± 0.085
GLMCWEHEDEKVNMYCVTDDQLICALCKLVGRHRDHQVAALSE | -0.482 ± 0.1
GLMCYEHEDEKVNMYCVTDDQLICALCKLVGRHRDHQVAALSE | -0.021 ± 0.16
GLMCLEHEDCKVNMYCVTDDQLICALCKLVGRHRDHQVAALSE | -0.062 ± 0.074
GLMCLEHEDRKVNMYCVTDDQLICALCKLVGRHRDHQVAALSE | -0.046 ± 0.049
GLMCLEHEDVKVNMYCVTDDQLICALCKLVGRHRDHQVAALSE | -0.414 ± 0.059
GLMCLEHEDDKVNMYCVTDDQLICALCKLVGRHRDHQVAALSE | -0.164 ± 0.12
GLMCLEHEDKKVNMYCVTDDQLICALCKLVGRHRDHQVAALSE | 0.063 ± 0.087
GLMCLEHEDQKVNMYCVTDDQLICALCKLVGRHRDHQVAALSE | -0.181 ± 0.072
GLMCLEHEDWKVNMYCVTDDQLICALCKLVGRHRDHQVAALSE | -0.247 ± 0.062
GLMCLEHEDTKVNMYCVTDDQLICALCKLVGRHRDHQVAALSE | -0.204 ± 0.15
GLMCLEHEDGKVNMYCVTDDQLICALCKLVGRHRDHQVAALSE | -0.316 ± 0.047
GLMCLEHEDLKVNMYCVTDDQLICALCKLVGRHRDHQVAALSE | -0.214 ± 0.061
GLMCLEHEDHKVNMYCVTDDQLICALCKLVGRHRDHQVAALSE | 0.066 ± 0.16
GLMCLEHEDAKVNMYCVTDDQLICALCKLVGRHRDHQVAALSE | -0.133 ± 0.059
GLMCLEHEDSKVNMYCVTDDQLICALCKLVGRHRDHQVAALSE | -0.079 ± 0.098
GLMCLEHEDMKVNMYCVTDDQLICALCKLVGRHRDHQVAALSE | -0.029 ± 0.097
GLMCLEHEDNKVNMYCVTDDQLICALCKLVGRHRDHQVAALSE | 0.093 ± 0.21
GLMCLEHEDFKVNMYCVTDDQLICALCKLVGRHRDHQVAALSE | -0.136 ± 0.16
GLMCLEHEDPKVNMYCVTDDQLICALCKLVGRHRDHQVAALSE | -0.498 ± 0.19

Variant | abundance fitness
GLMCLEHEWEKVNMYCVTDDQLICALCKLVGRHRDHQVAALSE | -0.052 ± 0.055
GLMCLEHEMEKVNMYCVTDDQLICALCKLVGRHRDHQVAALSE | 0.246 ± 0.072
GLMCLEHEGEKVNMYCVTDDQLICALCKLVGRHRDHQVAALSE | 0.031 ± 0.045
GLMCLEHEVEKVNMYCVTDDQLICALCKLVGRHRDHQVAALSE | -0.086 ± 0.049
GLMCLEHEYEKVNMYCVTDDQLICALCKLVGRHRDHQVAALSE | -0.113 ± 0.22
GLMCLEHETEKVNMYCVTDDQLICALCKLVGRHRDHQVAALSE | -0.24 ± 0.12
GLMCLEHEPEKVNMYCVTDDQLICALCKLVGRHRDHQVAALSE | -0.088 ± 0.18
GLMCLEHEFEKVNMYCVTDDQLICALCKLVGRHRDHQVAALSE | 0.173 ± 0.11
GLMCLEHEREKVNMYCVTDDQLICALCKLVGRHRDHQVAALSE | 0.027 ± 0.049
GLMCLEHEQEKVNMYCVTDDQLICALCKLVGRHRDHQVAALSE | 0.116 ± 0.065
GLMCLEHECEKVNMYCVTDDQLICALCKLVGRHRDHQVAALSE | 0.13 ± 0.08
GLMCLEHEEEKVNMYCVTDDQLICALCKLVGRHRDHQVAALSE | -0.378 ± 0.087
GLMCLEHENEKVNMYCVTDDQLICALCKLVGRHRDHQVAALSE | 0.636 ± 0.22
GLMCLEHEIEKVNMYCVTDDQLICALCKLVGRHRDHQVAALSE | 0.042 ± 0.095
GLMCLEHEAEKVNMYCVTDDQLICALCKLVGRHRDHQVAALSE | -0.418 ± 0.067
GLMCLEHEHEKVNMYCVTDDQLICALCKLVGRHRDHQVAALSE | -0.107 ± 0.18
GLMCLEHESEKVNMYCVTDDQLICALCKLVGRHRDHQVAALSE | 0.02 ± 0.059
GLMCLEHELEKVNMYCVTDDQLICALCKLVGRHRDHQVAALSE | 0.084 ± 0.054
GLMCLEHEKEKVNMYCVTDDQLICALCKLVGRHRDHQVAALSE | -0.38 ± 0.1
